{"source": "paper PMC3856062", "target": "CFP-SelM′ (human) (UniProt Q8WWX9)", "sequence (Q8WWX9 28-145)": "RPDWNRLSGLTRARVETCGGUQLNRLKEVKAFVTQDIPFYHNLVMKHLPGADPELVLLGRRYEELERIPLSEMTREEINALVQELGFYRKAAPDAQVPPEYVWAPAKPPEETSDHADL", "test": "FRET or BRET; acceptor photobleaching FRET in living HeLa cells cotransfected with CFP (donor) and YFP (receptor) plasmids; region of interest bleached at 515 nm for 20 s; laser confocal microscope"}
{"substance": "YFP-Gal-1 (from UniProt P09382 1-135) (natural protein)", "values": [{"measurement": "FRET efficiency", "value": 27.3, "unit": "%"}, {"measurement": "distance between donor and receptor (FRET)", "value": 6.35, "unit": "nm"}]}
